One data set has as its target β subunit of RNAP (E. coli, UniProt P0A8V2 1-1342). The experiment in a line: cryo-EM structure.
The data set “cryo-EM structure” deals with the molecule itself. The experiment in a line: cryo-EM structure.

The term stoichiometry N denotes a count of units in the complex or per binding partner.

Chain of β subunit of RNAP (P0A8V2 whole entry): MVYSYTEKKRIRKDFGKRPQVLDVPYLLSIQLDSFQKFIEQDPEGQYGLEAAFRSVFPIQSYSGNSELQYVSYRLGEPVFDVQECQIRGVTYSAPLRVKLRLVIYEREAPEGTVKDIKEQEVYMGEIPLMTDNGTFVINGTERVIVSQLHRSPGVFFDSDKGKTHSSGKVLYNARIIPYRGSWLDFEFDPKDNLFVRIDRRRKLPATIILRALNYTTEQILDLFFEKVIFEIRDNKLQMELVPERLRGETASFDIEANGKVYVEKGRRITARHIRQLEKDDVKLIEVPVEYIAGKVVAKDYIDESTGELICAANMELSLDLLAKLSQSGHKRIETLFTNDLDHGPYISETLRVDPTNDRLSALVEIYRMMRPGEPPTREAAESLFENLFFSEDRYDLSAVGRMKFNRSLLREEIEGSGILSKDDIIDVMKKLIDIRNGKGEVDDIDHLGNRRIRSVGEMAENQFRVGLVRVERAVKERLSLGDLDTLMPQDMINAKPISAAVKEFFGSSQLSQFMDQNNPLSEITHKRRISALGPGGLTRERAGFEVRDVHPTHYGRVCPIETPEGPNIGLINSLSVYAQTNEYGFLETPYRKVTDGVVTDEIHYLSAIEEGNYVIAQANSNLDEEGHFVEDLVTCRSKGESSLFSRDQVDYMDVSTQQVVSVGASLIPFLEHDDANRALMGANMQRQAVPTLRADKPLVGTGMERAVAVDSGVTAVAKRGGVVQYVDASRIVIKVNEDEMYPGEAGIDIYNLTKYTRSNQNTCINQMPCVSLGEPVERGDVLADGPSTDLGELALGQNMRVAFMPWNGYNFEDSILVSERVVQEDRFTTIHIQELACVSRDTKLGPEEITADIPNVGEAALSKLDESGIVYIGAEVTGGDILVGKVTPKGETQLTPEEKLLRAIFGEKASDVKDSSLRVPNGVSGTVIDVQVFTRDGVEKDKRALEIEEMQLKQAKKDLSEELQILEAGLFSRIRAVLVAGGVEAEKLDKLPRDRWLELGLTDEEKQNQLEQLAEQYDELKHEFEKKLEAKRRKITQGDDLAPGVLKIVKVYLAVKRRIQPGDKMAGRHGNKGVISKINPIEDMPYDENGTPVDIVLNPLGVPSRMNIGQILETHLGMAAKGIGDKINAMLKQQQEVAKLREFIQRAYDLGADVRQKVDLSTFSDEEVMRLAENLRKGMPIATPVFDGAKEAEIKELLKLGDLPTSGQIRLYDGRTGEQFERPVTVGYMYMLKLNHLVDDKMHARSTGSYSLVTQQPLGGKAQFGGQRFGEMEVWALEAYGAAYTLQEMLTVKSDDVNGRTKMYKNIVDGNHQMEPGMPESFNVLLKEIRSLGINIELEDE

B1: Cyclic AMP receptor protein (CAP) (natural protein)
chain: MVLGKPQTDPTLEWFLSHCHIHKYPSKSTLIHQGEKAETLYYIVKGSVAVLIKDEEGKEMILSYLNQGDFIGELGLFEEGQERSAWVRAKTACEVAEISYKKFRQLIQVNPDILMRLSAQMARRLQVTSEKVGNLAFLDVTGRIAQTLLNLAKQPDAMTHPDGMQIKITRQEIGQIVGCSRETVGRILKMLEDQNLISAHGKTIVVYGTR
On to B1, for which, in the data set with β subunit of RNAP, the binding result was “binds”. For the same molecule, the “stoichiometry N” value in “cryo-EM structure” is 2.

Values taken from doi:10.1101/2019.12.13.875658 (bioRxiv, 2019).
